Laboratory results: US20130287781A1 (GlaxoSmithKline, published 2013)

T1: native human Nogo-A of IMR32 neuroblastoma cells (intracellular) (human, UniProt Q9NQC3 1-1192)
T1 construct: whole, on cells; Detected inside permeabilised, fixed cells (ER-resident), not on the cell surface; also called intracellular Nogo-A; native Nogo-A
T1 sequence (looked up): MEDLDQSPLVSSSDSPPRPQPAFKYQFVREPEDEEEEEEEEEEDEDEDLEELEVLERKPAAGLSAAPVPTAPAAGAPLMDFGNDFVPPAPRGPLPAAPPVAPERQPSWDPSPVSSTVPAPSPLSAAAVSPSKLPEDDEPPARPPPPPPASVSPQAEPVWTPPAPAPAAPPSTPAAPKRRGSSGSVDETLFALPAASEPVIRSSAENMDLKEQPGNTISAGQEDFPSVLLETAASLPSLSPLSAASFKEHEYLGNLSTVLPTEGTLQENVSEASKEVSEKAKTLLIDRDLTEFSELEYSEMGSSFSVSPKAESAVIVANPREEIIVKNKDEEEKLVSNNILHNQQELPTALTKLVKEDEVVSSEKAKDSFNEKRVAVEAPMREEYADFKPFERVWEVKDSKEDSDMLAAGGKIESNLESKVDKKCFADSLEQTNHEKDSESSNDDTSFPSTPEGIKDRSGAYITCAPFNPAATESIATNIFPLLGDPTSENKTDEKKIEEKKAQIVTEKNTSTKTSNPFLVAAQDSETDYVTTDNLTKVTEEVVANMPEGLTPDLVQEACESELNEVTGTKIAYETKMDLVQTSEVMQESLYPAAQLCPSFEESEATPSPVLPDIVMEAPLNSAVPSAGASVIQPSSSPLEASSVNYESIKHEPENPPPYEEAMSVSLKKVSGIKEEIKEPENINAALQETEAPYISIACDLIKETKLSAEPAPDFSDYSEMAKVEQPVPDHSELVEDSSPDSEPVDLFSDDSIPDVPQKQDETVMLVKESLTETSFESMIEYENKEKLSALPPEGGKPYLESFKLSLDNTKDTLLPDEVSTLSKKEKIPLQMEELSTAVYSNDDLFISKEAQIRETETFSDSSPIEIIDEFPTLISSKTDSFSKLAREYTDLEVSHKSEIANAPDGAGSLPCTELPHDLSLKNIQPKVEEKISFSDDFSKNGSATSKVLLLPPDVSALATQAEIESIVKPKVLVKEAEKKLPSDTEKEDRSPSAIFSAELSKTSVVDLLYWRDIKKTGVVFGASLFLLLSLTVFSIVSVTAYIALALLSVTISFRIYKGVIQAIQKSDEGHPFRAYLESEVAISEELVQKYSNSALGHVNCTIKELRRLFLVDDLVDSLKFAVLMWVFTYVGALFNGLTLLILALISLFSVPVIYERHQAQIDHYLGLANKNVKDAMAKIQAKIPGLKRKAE


Tests used:
GST-human NOGO-A56 [1] = molecular target: T2, GST-human NOGO-A56 (human); assay: direct ELISA, GST-Nogo-A 5+6 coated at 1.0 mcg/ml, anti-human IgG-HRP, Abs490
T2 construct: Expressed in E. coli BL21 from pGEX-6P1 and purified on glutathione-sepharose; the GST tag is part of the protein in the assays; also called GST-Nogo-A 5+6; GST Nogo-A 5 + 6
Protocol: Wells were rinsed once with TBS+0.05% Tween (TBST) then incubated with 2% BSA in TBST to block non-specific binding sites at room temperature for 1 hour. Antibodies were diluted in TBST+2% BSA to 10 μg/ml and ½ dilutions made from this. Antibodies were added to wells in duplicate and incubated at room temperature for 1 hour. […] The wells were washed three times with TBST and then incubated with 100 μl OPD peroxidase substrate (Sigma) per well for 10 minutes. The colour reaction was stopped by the addition of 25 μl concentrated H₂SO₄. Optical density at 490 nm was measured using a plate reader. Background values read from wells with no antibody were subtracted.

[2] = molecular target: T3, Cynomolgus monkey NOGO (A56) plus GST tag (cynomolgus monkey); assay: direct ELISA on GST-NOGO-A56 from cynomolgus, Abs490
T3 construct: also called cynomolgus Nogo-A; GST-NOGO-A56 from cynomolgus

[3] = molecular target: T3, Cynomolgus monkey NOGO (A56) plus GST …; assay: SPR (Biacore T100), reverse format: antibody captured by Protein A, GST-NOGO-A56 flowed over; mean
Description: (§1) Protein A was immobilised on the surface at about 4000RUs and anti-Nogo-A antibodies were captured at approximately 300-400RUs. […] All the runs were done in duplicates. The values show the mean and standard deviation (in brackets) of 1-3 independent runs with each run done in duplicate and each data set analysed independently prior to calculation of the mean and standard deviation.

[4] = molecular target: T4, Squirrel monkey NOGO (A56) plus GST tag (squirrel monkey); assay: as above
T4 construct: also called GST-NOGO-A56 from squirrel monkey
Description: as §1

[5] = molecular target: T5, Rat NOGO (A56) plus GST tag (rat); assay: as above
T5 construct: also called GST-NOGO-A56 from rat
Description: as §1

GST-human NOGO-A56 [6] = molecular target: T2, GST-human NOGO-A56; assay: as above
Description: as §1

[7] = molecular target: T6, Marmoset NOGO (A56) plus GST tag (marmoset); assay: as above
T6 construct: also called GST-NOGO-A56 from marmoset
Description: as §1

GST-human NOGO-A56 [8] = molecular target: T2, GST-human NOGO-A56; assay: SPR (Biacore T100), human Nogo-A amine-coupled to CM5, antibody 0.125-8 nM flowed over; mean
GST-human NOGO-A56 [9] = molecular target: T2, GST-human NOGO-A56; assay: SPR (Biacore T100), reverse format: antibody captured by Protein A, GST Nogo-A 5+6 0.125-8 nM flowed over; mean (SD in brackets)
Description: Protein A was immobilised to approximately 4000RUs by primary amine and used to capture 200-300RUs of the sample antibodies. […] The values show the mean and standard deviation (in brackets) of three independent runs in duplicate. Each data set was independently analysed prior to the calculation of the mean and standard deviation.

GST-human NOGO-A56 [10] = molecular target: T2, GST-human NOGO-A56; assay: SPR (Biacore), GST-human NOGO-A56 amine-coupled to CM5, antibody flowed over, 37 C
Protocol: (§2) GST-human NOGO-A56 was immobilised to a CM5 chip by primary amine coupling using the Biacore Wizard program designed for targeted immobilisation levels. The CM5 sensor surface was activated by passing a solution of 50 mM N-hydroxy-succinimide (NHS) and 200 mM N-ethyl-N′-dimethylaminopropyl carbonide (EDC). Then GST-human NOGO-A56 in sodium acetate buffer, pH5.0 or pH 4.5, was passed over the chip and immobilised. After immobilisation was complete any still activated esters were blocked by an injection of 1M ethanolamine hydrochloride, pH8.5.
(§3) The anti-NOGO mAbs were diluted down in HBS-EP (10 mM HEPES, pH 7.4, 150 mM NaCl, 3 mM EDTA, and 0.005% P-20 surfactant) for the BIAcore 3000 or HBS-EP+ (10 mM HEPES, pH 7.4, 150 mM NaCl, 3 mM EDTA, and 0.05% P-20 surfactant) in the case of the T100 and binding studies were carried out at range of defined antibody concentrations. All runs were referenced against a blanked sensor surface (one that had been activated and blocked as described earlier but had no addition of ligand). Analysis of binding was carried out using the BIAevaluation kinetic analysis software version 4.1 for the BIAcore 3000 and T100 kinetic analysis software version 1.0. […] Unless otherwise stated, the BIAcore experiments were performed at 25° C.

[11] = molecular target: T4, Squirrel monkey NOGO (A56) plus GST tag; assay: direct ELISA on GST-NOGO-A56 from squirrel monkey, Abs490
GST-human NOGO-A56 [12] = molecular target: T2, GST-human NOGO-A56; assay: SPR (Biacore), GST-human NOGO-A56 amine-coupled to CM5, antibody flowed over, 25 C
Protocol: as §2, §3

[13] = molecular target: T1, native human Nogo-A of IMR32 …; assay: flow cytometry on permeabilised, fixed IMR32 cells (intracellular Nogo-A), PE anti-human IgG, MFI
Protocol: In the second assay, the ability of the humanised antibodies to bind native Nogo-A was assessed using a human neuroblastoma cell line—IMR32. This cell line is characterised by high intracellular/low cell surface levels of Nogo-A protein. In an attempt to increase the binding signal, the assay was set-up to detect intracellular Nogo-A (ER-resident). IMR32 cells were permeabilised and fixed prior to staining with the anti-Nogo-A humanised antibodies. Binding of the antibodies to Nogo-A was detected using an anti-human IgG-PE labelled secondary (Sigma, #P8047).

GST-human NOGO-A56 [14] = molecular target: T2, GST-human NOGO-A56; assay: SPR (Biacore), GST-human NOGO-A56 amine-coupled to CM5, antibody flowed over, 25 C; remark: listed apart in the source
Protocol: as §2, §3

GST-human NOGO-A56 [15] = molecular target: T2, GST-human NOGO-A56; assay: SPR (Biacore T100), antigen amine-coupled to CM5, antibody 0.125-8 nM; mean of six runs in duplicate (SD in brackets)
Description: In the first approach, the recombinant Nogo-A was coupled to the surface of the chip and anti-Nogo-A antibodies passed over this surface. In the second approach, Protein A was used to capture the antibody onto the surface of the chip over which the recombinant GST-human Nogo-A56 was passed.
The antigen was bound to the CM5 chip by primary amine coupling. […] The values show the mean and standard deviation (in brackets) of six independent runs carried out in duplicate. Each completed data set was analysed independently prior to the calculation of mean and standard deviation.

T4 sequence (chain, as listed by the source limits assumed): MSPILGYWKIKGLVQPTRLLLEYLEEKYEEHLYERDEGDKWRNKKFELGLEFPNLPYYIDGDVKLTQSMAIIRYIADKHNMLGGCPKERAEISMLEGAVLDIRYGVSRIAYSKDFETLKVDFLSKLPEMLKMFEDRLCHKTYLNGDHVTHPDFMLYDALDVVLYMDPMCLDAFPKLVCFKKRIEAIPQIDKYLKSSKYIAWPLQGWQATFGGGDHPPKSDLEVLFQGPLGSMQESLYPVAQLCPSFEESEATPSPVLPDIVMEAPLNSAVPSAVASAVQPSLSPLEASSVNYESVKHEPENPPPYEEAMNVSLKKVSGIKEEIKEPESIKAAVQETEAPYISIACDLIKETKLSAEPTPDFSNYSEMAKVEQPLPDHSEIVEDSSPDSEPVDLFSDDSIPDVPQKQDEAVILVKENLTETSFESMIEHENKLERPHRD
T3 sequence (chain, as listed by the source limits assumed): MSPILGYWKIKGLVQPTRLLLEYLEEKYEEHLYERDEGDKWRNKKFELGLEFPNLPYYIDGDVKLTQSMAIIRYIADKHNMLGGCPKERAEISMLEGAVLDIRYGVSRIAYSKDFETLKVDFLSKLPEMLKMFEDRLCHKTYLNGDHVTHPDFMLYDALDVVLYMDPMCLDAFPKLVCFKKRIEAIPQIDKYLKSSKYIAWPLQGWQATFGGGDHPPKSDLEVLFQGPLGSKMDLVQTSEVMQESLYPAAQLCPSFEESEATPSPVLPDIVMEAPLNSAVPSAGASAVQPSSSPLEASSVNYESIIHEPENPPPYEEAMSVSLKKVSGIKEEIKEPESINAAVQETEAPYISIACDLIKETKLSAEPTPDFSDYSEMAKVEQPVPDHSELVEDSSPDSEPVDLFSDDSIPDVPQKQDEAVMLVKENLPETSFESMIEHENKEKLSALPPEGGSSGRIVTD
T2 sequence (chain, as listed by the source limits assumed): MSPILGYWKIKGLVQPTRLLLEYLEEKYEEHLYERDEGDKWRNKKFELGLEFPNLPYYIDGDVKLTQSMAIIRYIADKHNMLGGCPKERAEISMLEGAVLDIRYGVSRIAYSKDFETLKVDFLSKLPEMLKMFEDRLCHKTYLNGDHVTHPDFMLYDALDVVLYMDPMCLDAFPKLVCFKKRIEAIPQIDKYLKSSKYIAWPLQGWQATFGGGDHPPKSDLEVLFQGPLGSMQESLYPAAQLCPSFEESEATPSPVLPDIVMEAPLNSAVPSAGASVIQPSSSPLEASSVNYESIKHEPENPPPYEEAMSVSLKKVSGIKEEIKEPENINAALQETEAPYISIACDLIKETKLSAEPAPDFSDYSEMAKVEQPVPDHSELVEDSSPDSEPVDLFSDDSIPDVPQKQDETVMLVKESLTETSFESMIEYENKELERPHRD
T5 sequence (chain, as listed by the source limits assumed): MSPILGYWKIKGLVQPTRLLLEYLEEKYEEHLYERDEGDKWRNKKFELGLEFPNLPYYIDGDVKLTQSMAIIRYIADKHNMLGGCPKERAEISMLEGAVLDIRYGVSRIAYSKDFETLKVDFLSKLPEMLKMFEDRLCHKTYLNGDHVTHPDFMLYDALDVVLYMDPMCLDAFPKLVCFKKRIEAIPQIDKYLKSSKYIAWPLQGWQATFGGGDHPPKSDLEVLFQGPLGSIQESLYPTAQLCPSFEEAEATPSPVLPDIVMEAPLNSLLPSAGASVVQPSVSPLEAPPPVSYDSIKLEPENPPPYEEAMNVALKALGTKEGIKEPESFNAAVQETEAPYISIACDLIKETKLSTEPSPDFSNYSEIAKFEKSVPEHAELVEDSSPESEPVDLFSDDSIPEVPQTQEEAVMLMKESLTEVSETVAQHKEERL
T6 sequence (chain, as listed by the source limits assumed): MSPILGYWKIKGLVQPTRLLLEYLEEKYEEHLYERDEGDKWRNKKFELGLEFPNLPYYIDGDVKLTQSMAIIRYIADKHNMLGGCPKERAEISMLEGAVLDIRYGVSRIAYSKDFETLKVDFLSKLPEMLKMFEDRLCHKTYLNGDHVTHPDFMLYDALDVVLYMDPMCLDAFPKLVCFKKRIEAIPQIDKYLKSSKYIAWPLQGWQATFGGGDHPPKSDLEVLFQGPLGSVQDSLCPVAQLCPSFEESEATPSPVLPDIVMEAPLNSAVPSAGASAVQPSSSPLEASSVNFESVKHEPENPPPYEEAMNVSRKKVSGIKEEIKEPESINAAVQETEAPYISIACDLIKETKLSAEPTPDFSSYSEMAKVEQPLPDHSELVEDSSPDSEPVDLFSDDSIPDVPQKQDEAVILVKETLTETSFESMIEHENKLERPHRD

Binder	EC50 (read off the curve) (GST-human NOGO-A56 [1]) [µg/mL]	EC50 (read off the curve) [2] [µg/mL]	Kd [3] [nM]	Kd [4] [nM]	Kd [5] [nM]	Kd (GST-human NOGO-A56 [6]) [nM]	Kd [7] [nM]	Kd (GST-human NOGO-A56 [8]) [nM]	Kd (GST-human NOGO-A56 [9]) [nM]	Kd (GST-human NOGO-A56 [10]) [nM]	koff (GST-human NOGO-A56 [10]) [s⁻¹]	kon (GST-human NOGO-A56 [10]) [M⁻¹ s⁻¹]	EC50 (read off the curve) [11] [µg/mL]	Kd (GST-human NOGO-A56 [12]) [nM]	koff (GST-human NOGO-A56 [12]) [s⁻¹]	kon (GST-human NOGO-A56 [12]) [M⁻¹ s⁻¹]	binding result [13]	Kd (GST-human NOGO-A56 [14]) [nM]	koff (GST-human NOGO-A56 [14]) [s⁻¹]	kon (GST-human NOGO-A56 [14]) [M⁻¹ s⁻¹]	further results
H28L16 (antibody, human IgG1, kappa, IgG1 (L235A, G237A) / kappa; CAMPATH-1H signal (1-19) left out; also called H28FL L16FL; NOGO H28L16) heavy: not shown light: DIVMTQSPLSNPVTLGQPVSISCRSSKSLLYKDGKTYLNWFLQRPGQSPQLLIYLMSTRASGVPDRFSGGGSGTDFTLKISRVEAEDVGVYYCQQLVEYPLTFGQGTKLEIKRTVAAPSVFIFPPSDEQLKSGTASVVCLLNNFYPREAKVQWKVDNALQSGNSQESVTEQDSKDSTYSLSSTLTLSKADYEKHKVYACEVTHQGLSSPVTKSFNRGEC	~0.03	~0.05	3.41	6.86	1.76	0.4	4.89	0.64	0.34	0.678	0.00524	7.73e+06	~0.05	0.296	0.00214	7.25e+06	binds	0.61	0.00264	4.33e+06	kon (GST-human NOGO-A56 [8]): 6.97e+06 M⁻¹ s⁻¹; Kd (GST-human NOGO-A56 [15]): 0.64 nM
HcLc (chimera of 2A10: murine 2A10 VH and VL with human IgG constant regions) (antibody, V domains shown, also called chimeric antibody; chimeric form of the parental antibody) VH: QVQLQQPGTELVKPGASVKLSCKASGYTFTSYWMHWVKQRPGQGLEWIGNINPSNGGTNYNEKFKSKATLTVDKSSSTAYMQLSSLTSEDSAVYYCELGQGYWGQGTLVTVSS VL: DIVITQDELSNPVTSGESVSISCRSSKSLLYKDGKTYLNWFLQRPGQSPQLLIYLMSTRASGVSDRFSGSGSGTDFTLEISRVKAEDVGVYYCQQLVEYPLTFGAGTKLELKR	~0.08	~0.1	4.66	7.45	2.01	0.54	4.51	1.86	0.41	1.46	0.00774	5.08e+06	~0.07	0.779	0.00249	3.19e+06	binds	1.18	0.00313	2.66e+06	Kd (GST-human NOGO-A56 [15]): 1.86 nM
